This note sets out measurements from patent publication US20220387586A1.

The target of test [1] is cynomolgus LAG3 on cells (cynomolgus). The test is described as follows: flow cytometry on activated cynomolgus PBMC, 10 µg/ml; control (only 2nd Ab (hu): 7.62). A general note: In flow cytometry, cells or beads pass a laser one at a time.
Test [2] concerns the target human Fc tagged human Lag3 extra cellular domain (human) (UniProt P18627). The test is described as follows: FACS, inhibition of biotinylated Lag3:Fc binding to MHC-II on A375 cells (competitor MHC-II); control at 10 µg/ml.

human Fc tagged human Lag3 extra cellular domain (human), sequence (P18627 29-450): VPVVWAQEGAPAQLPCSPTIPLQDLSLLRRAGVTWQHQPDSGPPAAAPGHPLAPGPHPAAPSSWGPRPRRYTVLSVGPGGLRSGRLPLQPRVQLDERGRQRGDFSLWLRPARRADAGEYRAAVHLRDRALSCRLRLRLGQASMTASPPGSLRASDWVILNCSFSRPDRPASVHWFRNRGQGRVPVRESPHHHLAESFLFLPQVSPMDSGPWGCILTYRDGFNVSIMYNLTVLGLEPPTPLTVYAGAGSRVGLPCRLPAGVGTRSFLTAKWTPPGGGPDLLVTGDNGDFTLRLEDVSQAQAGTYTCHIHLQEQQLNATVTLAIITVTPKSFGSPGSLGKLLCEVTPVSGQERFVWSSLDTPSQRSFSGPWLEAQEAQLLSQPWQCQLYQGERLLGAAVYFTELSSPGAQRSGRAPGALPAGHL

Substance DP47 (human isotype) (antibody) had a % positive cyno cells (PBLs) after CD3/CD28 activation in test [1] of 9.19%.

As for “human IgG1 isotype control (Sigma, cat.no. #I5154) (antibody)”, the % Inhibition (commonly the change of the read-out against control, counted positive when it falls) in test [2] was -2.9%.
